Test results published in US20160185837A1, “GIP AND GLP-1 RECEPTOR DUAL-AGONISTS FOR THE TREATMENT OF DIABETES” (Medimmune Limited, priority 2013, published 2016).

T1: mouse GIP receptor (mouse) (UniProt Q0P543)
T1 sequence (looked up): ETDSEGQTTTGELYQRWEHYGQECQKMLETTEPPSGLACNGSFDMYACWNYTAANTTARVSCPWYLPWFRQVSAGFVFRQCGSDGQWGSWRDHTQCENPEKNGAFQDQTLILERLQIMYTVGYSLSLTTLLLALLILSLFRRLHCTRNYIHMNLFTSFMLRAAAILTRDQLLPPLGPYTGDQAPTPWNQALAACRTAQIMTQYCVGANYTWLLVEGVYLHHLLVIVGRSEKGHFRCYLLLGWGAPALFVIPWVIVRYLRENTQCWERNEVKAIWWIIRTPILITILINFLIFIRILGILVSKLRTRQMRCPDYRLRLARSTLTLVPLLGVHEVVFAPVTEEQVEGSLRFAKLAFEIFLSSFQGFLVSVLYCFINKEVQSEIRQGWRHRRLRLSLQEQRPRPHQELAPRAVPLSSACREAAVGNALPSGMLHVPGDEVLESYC

T2: human GIP receptor (human) (UniProt P48546)
T2 sequence (looked up): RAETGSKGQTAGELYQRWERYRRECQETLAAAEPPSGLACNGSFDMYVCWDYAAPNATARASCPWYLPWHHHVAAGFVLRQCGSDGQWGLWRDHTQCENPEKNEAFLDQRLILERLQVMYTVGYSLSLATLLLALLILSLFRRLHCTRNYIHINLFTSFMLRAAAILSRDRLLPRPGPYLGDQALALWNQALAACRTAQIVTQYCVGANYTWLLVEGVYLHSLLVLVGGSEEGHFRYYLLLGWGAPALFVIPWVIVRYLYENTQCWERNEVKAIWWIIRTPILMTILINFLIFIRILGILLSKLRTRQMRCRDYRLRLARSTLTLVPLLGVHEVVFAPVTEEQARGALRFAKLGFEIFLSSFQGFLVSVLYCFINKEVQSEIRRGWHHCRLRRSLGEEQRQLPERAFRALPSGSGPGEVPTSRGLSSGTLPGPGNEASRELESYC


Experiments:
Assay in all cases: cell-based or functional assay
[1] = target: T1, mouse GIP receptor (mouse)
[2] = target: human glucagon receptor (human) (UniProt P47871)
Sequence of human glucagon receptor (human) (P47871 26-477): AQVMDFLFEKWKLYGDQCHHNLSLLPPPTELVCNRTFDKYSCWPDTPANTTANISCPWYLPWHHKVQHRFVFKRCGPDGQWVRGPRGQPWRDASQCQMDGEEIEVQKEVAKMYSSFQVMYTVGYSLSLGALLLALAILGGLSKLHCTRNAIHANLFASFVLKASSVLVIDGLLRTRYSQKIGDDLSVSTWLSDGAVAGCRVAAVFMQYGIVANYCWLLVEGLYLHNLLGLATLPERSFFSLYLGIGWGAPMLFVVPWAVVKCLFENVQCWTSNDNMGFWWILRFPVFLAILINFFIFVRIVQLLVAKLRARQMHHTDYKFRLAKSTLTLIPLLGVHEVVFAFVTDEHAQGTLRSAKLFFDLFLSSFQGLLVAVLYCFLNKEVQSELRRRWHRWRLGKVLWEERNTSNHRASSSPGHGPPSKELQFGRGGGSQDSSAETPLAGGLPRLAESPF

[3] = target: human GLP-1 receptor (human) (UniProt P43220)
Sequence of human GLP-1 receptor (human) (P43220 24-463): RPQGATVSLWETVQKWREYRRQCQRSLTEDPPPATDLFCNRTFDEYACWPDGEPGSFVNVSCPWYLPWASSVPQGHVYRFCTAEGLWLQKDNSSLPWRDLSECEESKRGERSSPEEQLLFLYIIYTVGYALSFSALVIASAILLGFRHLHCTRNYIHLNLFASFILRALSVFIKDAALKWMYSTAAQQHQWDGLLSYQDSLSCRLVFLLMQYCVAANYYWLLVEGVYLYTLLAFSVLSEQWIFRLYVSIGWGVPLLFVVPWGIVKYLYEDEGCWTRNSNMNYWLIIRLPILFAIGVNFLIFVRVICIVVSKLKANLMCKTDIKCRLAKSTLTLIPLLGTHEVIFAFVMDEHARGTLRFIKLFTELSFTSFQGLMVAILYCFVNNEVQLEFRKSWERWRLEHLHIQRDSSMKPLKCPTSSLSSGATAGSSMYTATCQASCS

[4] = target: T2, human GIP receptor (human)

Row | cAMP EC50 [3] [nM] | cAMP EC50 [4] [nM] | cAMP EC50, Batch 1 [3] [nM] | Binder | further results
1 | > 17.2 | – | – | IP404 (Fc fusion) YSEGTFTSLYRIHKERQAIDEFIAKLLKGGGSGGGGSGGGGSGGGGSGGGGSGGGGSGGGGSGGGGSACPPC | cAMP EC50 [1]: 0.05 nM; cAMP EC50 [2]: > 17.2 nM
2 | > 166 | – | – | IP408 (Fc fusion) YSEGTHTSDLRILLERQAIDEFIAKLLKGGGSGGGGSGGGGSGGGGSGGGGSGGGGSGGGGSGGGGSACPPC | cAMP EC50 [1]: 0.38 nM; cAMP EC50 [2]: > 166 nM
3 | > 59 | – | – | IP422 (Fc fusion) YSEGTHTSDLRILLERQAIDEFIAFLLKGGGSGGGGSGGGGSGGGGSGGGGSGGGGSGGGGSGGGGSACPPC | cAMP EC50 [1]: 0.012 nM; cAMP EC50 [2]: > 59 nM; cAMP EC50, hGIPr (C3) line [4]: 1.8 nM
4 | 0.57 | 0.35 | – | IP224 (Fc fusion) YSEGTFTSDVSSYMERQAIDEFIAWLLGGGAAAGGSGSTASSGSGSATGGGGAATHTCPPCPAPEF | –
5 | 1.6 | 17 | – | IP208 (Fc fusion) YSEGTFTSDVSSYLEGQAAKEFIAWLLAGAAAGGSGSTASSGSGSATGGGGAATHTCPPCPAPEF | –
6 | 850 | 0.12 | – | IP204 (Fc fusion) HGEGTFISDYSIAMDKIHQQDFVNWLLAQKAAAGGSGSTASSGSGSATGGGGAATHTCPPCPAPEF | –
7 | – | – | 0.067 | IP231 (Fc fusion) HGEGTFTSDVSSYLEEQAAKEFIAWLVKGGGGGGSGGGGSGGGGSGGGGSATHTCPPC | –
8 | – | – | 0.036 | IP233 (Fc fusion) HGEGTFTSDVSSYLEEQAAKEFIAWLVKGAAAGGSGSTASSGSGSATGGGGAATHTCPPCPAPEF | –
9 | – | – | 0.042 | IP203 (Fc fusion) HGEGTFTSDVSSYLEGQAAKEFIAWLVKGGAAAGGSGSTASSGSGSATGGGGAATHTCPPCPAPEF | cAMP EC50, Batch 1 [2]: > 650 nM; cAMP EC50, Batch 1 [4]: 110 nM
10 | – | – | 0.058 | IP238 (Fc fusion) HGEGTFTSDVSSYLEGQAAKEFIAWLVKGGGGGGSGGGGSGGGGSAESKYGPPCPPC | cAMP EC50, Batch 1 [4]: 310 nM
11 | 4100 | 0.0078 | – | IP207 (Fc fusion) YAEGTFISDYSIAMDKIHQQDFVNWLLAQKGKKNDWKHNITQAAAGGSGSTASSGSGSATGGGGAATHTCPPCPAPELL | cAMP EC50 [2]: 900 nM; cAMP EC50, Batch 1 [4]: 0.0085 nM
12 | – | 2300 | – | GGGGGSGGGGSGGGGSGGGGSATHTCPPC (Fc fusion, not shown: a dimerising Fc or GST) [IP288] | –
13 | 0.25 | – | – | IP407 (Fc fusion) YSEGTFTSDYSKLLEEEAIRLFIEWLLAGGGGGGSGGGGSGGGGSGGGGSATHTCPPC | cAMP EC50 [1]: 2.3 nM; cAMP EC50 [2]: > 163 nM
14 | 0.082 | – | – | IP420 (Fc fusion) YSEGTFTSDYSKLLEEEATRLFIEWLLAGGGGGGSGGGGSGGGGSGGGGSATHTCPPC | cAMP EC50 [1]: 2.6 nM; cAMP EC50 [2]: 21 nM

Continued, binder first:

Row | Binder | cAMP EC50 [3] [nM] | cAMP EC50 [4] [nM] | cAMP EC50, Batch 1 [3] [nM] | further results
15 | IP197 (Fc fusion) YSEGTFTSDVSSYMERQAIDEFIAWLLAGAAAGGSGSTASSGSGSATGGGGAATHTCPPCPAPEF | 0.78 | 0.18 | – | –
16 | IP171 (Fc fusion) YSEGTFTSDVSSYMERQAISEFIAWLLAGAAAGGSGSTASSGSGSATGGGGAATHTCPPCPAPEF | 0.53 | 0.39 | – | –
17 | IP176 (Fc fusion) YSEGTFTSDVSSYMERQAISEFIAWLLKGPAAAGGSGSTASSGSGSATGGGGAATHTCPPCPAPEF | 0.6 | 0.42 | – | –
18 | IP199 (Fc fusion) HGEGTFTSDVSSYLEGQAAKEFIAWLLAGAAAGGSGSTASSGSGSATGGGGAATHTCPPCPAPEF | 0.069 | – | – | –
19 | IP173 (Fc fusion) YSEGTFTSDVSSYLEEQAAKEFIAWLLAGAAAGGSGSTASSGSGSATGGGGAATHTCPPCPAPEF | 0.23 | 1.2 | – | –
20 | IP150 (Fc fusion) YSEGTFTSDVSSYLEGQAAKEFIAWLVAGGAPPGGSGSTASSGSGSATGGGGAATHTCPPCPAPEF | 0.033 | 16 | – | –
21 | IP174 (Fc fusion) HGEGTFTSDVSSYLEEEAAKEFIAWLVAGGAAAGGSGSTASSGSGSATGGGGAATHTCPPCPAPEF | 0.032 | 460 | – | –
22 | IP132 (Fc fusion) HGEGTFTSDVSSYLEGQAAKEFIAWLVKGGGGGGSGGGGSGGGGSGGGGSATHTCPPCPAPEF | – | – | – | cAMP EC50, Batch 2 [4]: 81 nM; cAMP EC50, Batch 2 [3]: 0.04 nM
23 | IP146 (Fc fusion) HGEGTFTSDVSSYLEGQAAKEFIAWLVKGAAAGGSGSTASSGSGSATGGGGAACPPCPAPEF | – | – | 0.049 | cAMP EC50, Batch 1 [2]: 650 nM; cAMP EC50, Batch 1 [4]: 83 nM
24 | IP187 (Fc fusion) HGEGTFTSDVSSYLEGQAAKEFIAWLVKGAPPGGGGGSGGGGSGGGGSGGGGSATHTCPPCPAPEF | – | – | 0.037 | cAMP EC50, Batch 1 [4]: 540 nM
25 | IP191 (Fc fusion) HGEGTFTSDVSSYLEGQAAKEFIAWLVKGAAAGGSGSTASSGSGSATGGGGAATYTCPPCPAPEF | – | – | 0.057 | –
26 | IP192 (Fc fusion) HGEGTFTSDVSSYLEGQAAKEFIAWLVKGAAAGGSGSTASSGSGSATGGGGAATSTCPPCPAPEF | – | – | 0.043 | –
27 | IP193 (Fc fusion) HGEGTFTSDVSSYLEGQAAKEFIAWLVKGAAAGGSGSTASSGSGSATGGGGCPPCPAPEF | – | – | 0.064 | cAMP EC50, Batch 1 [2]: 780 nM; cAMP EC50, Batch 1 [4]: 450 nM
28 | IP194 (Fc fusion) HGEGTFTSDVSSYLEGQAAKEFIAWLVKGAAAGGSGSTASSGSGSATGGGGPPCPPCPAPEF | – | – | 0.061 | –
29 | IP195 (Fc fusion) HGEGTFTSDVSSYLEGQAAKEFIAWLVKGAAAGGSGSTASSGSGSATGGGGESKYGPPCPPCPAPEF | – | – | 0.061 | –
30 | IP196 (Fc fusion) HGEGTFTSDVSSYLEGQAAKEFIAWLVKGAAAGGSGSTASSGSGSATGGGGAPEF | – | – | 0.073 | –
31 | IP188 (Fc fusion) YSEGTFISDYSIAMDKIHQQDFVNWLLAQKAPPGGGGGSGGGGSGGGGSGGGGSATHTCPPCPAPEF | – | – | 500 | cAMP EC50, Batch 1 [2]: 350 nM; cAMP EC50, Batch 1 [4]: 0.0038 nM
